The target of the experiment is porcine brain tubulin (alpha/beta heterodimer), as paclitaxel-stabilised microtubule lattice (straight tubulin) or as curved tubulin protofilaments (porcine) (UniProt P02550). The experiment can be described thus: cryo-EM 2D class averages; CTNM AMP-PNP: 15 uM KLP10A NM with 3 uM polymerized tubulin in BRB80, 5 mM AMPPNP, 5 mM MgCl2, 20 uM paclitaxel, 5 min at room temperature; ring-like curved tubulin complexes not wrapped around microtubules, aligned and classified in 2D. The following applies: scale: KLP10A motor domain per tubulin heterodimer.

“And” between values parts separate entries of the source, which are not always exact repeats. Equal entries are not always repeated.

Chain of UniProt P02550 (P02550 whole entry, chain 1 of 2, the tested form may be a part): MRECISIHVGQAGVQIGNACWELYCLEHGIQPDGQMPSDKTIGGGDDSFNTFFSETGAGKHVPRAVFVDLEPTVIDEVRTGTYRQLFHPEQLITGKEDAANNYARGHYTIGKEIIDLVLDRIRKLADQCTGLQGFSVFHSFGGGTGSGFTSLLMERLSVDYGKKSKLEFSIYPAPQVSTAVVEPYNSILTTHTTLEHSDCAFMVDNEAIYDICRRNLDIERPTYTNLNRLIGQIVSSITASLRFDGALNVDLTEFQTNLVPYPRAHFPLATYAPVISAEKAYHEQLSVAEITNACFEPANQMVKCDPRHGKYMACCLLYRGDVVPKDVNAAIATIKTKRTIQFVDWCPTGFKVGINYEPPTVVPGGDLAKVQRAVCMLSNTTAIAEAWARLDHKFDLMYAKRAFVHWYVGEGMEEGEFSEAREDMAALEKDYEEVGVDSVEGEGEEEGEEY
Chain of UniProt P02550 (P02554 1-439, chain 2 of 2, further chain): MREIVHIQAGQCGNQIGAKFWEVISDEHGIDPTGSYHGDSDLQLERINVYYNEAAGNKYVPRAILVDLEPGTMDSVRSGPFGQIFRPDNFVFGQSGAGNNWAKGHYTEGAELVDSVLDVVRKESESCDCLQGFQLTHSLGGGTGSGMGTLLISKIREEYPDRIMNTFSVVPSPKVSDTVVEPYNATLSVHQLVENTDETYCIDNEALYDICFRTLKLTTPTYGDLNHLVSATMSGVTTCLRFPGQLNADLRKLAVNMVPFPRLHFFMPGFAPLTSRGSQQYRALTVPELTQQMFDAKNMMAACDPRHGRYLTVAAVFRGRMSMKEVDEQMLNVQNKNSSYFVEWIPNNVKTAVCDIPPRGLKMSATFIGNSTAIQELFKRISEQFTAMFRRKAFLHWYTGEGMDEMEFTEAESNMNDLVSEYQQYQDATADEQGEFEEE

With “Drosophila melanogaster kinesin-13 KLP10A neck motor construct (NM), residues 198-615 (from UniProt Q960Z0 198-615) (domain or fragment)”, the stoichiometry N is 1 and 0.5.

These data come from PMC5916938.
